These results are taken from paper PMC4314829, “Unraveling the kinetic diversity of microbial 3-dehydroquinate dehydratases of shikimate pathway” (AMB Express, 2015).

Common to all, as to conditions: DHQ 0.08 to 1.0 mmol/L; assay buffer, pH and temperature not given
The subject of data set [1] is O=C1C[C@@](O)(C(=O)O)C[C@@H](O)[C@@H]1O. The experiment in a line: purified protein.
Substrate in data set [2]: O=C1C[C@@](O)(C(=O)O)C[C@@H](O)[C@@H]1O
Description: OD234 microplate assay, Lineweaver-Burk. The class given is biochemical, Gluconobacter oxydans. An excerpt: OD234 microplate assay, Lineweaver-Burk on DHQase 3007

Substrate in data set [3]: O=C1C[C@@](O)(C(=O)O)C[C@@H](O)[C@@H]1O
Description: OD234 microplate assay, Lineweaver-Burk. The format is biochemical, Crystallibacter crystallopoietes. An excerpt: OD234 microplate assay, Lineweaver-Burk on DHQase 3012

Substrate in data set [4]: O=C1C[C@@](O)(C(=O)O)C[C@@H](O)[C@@H]1O
The experiment in a line: OD234 microplate assay, Lineweaver-Burk. The class given is biochemical, Natranaerobius thermophilus. The source says:
OD234 microplate assay, Lineweaver-Burk on DHQase 3026

Substrate in data set [5]: O=C1C[C@@](O)(C(=O)O)C[C@@H](O)[C@@H]1O
Description: OD234 microplate assay, Lineweaver-Burk. The format is biochemical, Thermodesulfobium narugense. An excerpt: OD234 microplate assay, Lineweaver-Burk on DHQase 3028

Substrate in data set [6]: O=C1C[C@@](O)(C(=O)O)C[C@@H](O)[C@@H]1O
The experiment in a line: OD234 microplate assay, Lineweaver-Burk. The class given is biochemical, Halanaerobium hydrogeniformans. The source says: OD234 microplate assay, Lineweaver-Burk on DHQase 3024

Substrate in data set [7]: O=C1C[C@@](O)(C(=O)O)C[C@@H](O)[C@@H]1O
Description: OD234 microplate assay, Lineweaver-Burk. The format is biochemical, Streptomyces acidiscabies. The source says: OD234 microplate assay, Lineweaver-Burk on DHQase 3016

Substrate in data set [8]: O=C1C[C@@](O)(C(=O)O)C[C@@H](O)[C@@H]1O
Description: OD234 microplate assay, Lineweaver-Burk. The class given is biochemical, Paramagnetospirillum magneticum. An excerpt:
OD234 microplate assay, Lineweaver-Burk on DHQase 3037

Substrate in data set [9]: O=C1C[C@@](O)(C(=O)O)C[C@@H](O)[C@@H]1O
Description: OD234 microplate assay, Lineweaver-Burk. The class given is biochemical, Nocardia brasiliensis. The source says: OD234 microplate assay, Lineweaver-Burk on DHQase 3014

Substrate in data set [10]: O=C1C[C@@](O)(C(=O)O)C[C@@H](O)[C@@H]1O
The experiment in a line: OD234 microplate assay, Lineweaver-Burk. The class given is biochemical, Alcanivorax borkumensis. The source says: OD234 microplate assay, Lineweaver-Burk on DHQase 3003

Substrate in data set [11]: O=C1C[C@@](O)(C(=O)O)C[C@@H](O)[C@@H]1O
Description: OD234 microplate assay, Lineweaver-Burk. The class given is biochemical, Acetivibrio clariflavus. The source says: OD234 microplate assay, Lineweaver-Burk on DHQase 3025

Substrate in data set [12]: O=C1C[C@@](O)(C(=O)O)C[C@@H](O)[C@@H]1O
The experiment in a line: OD234 microplate assay, Lineweaver-Burk. The class given is biochemical, Metallosphaera cuprina. The source says: OD234 microplate assay, Lineweaver-Burk on DHQase 3030

Substrate in data set [13]: O=C1C[C@@](O)(C(=O)O)C[C@@H](O)[C@@H]1O
Description: OD234 microplate assay, Lineweaver-Burk. The format is biochemical, Parageobacillus thermoglucosidasius. The source says:
OD234 microplate assay, Lineweaver-Burk on DHQase 3021

Substrate in data set [14]: O=C1C[C@@](O)(C(=O)O)C[C@@H](O)[C@@H]1O
Description: OD234 microplate assay, Lineweaver-Burk. The class given is biochemical, Psychromonas ingrahamii. An excerpt: OD234 microplate assay, Lineweaver-Burk on DHQase 3010

Substrate in data set [15]: O=C1C[C@@](O)(C(=O)O)C[C@@H](O)[C@@H]1O
The experiment in a line: OD234 microplate assay, Lineweaver-Burk. The class given is biochemical, Ruminococcus champanellensis. An excerpt:
OD234 microplate assay, Lineweaver-Burk on DHQase 3027

On to DHQase 3009 (Psychrobacter sp. PRwf-1), for which, in [1], the Km worked out at 203.24 µM, the Vmax was 254 µM/min, the kcat amounted to 31.7 s⁻¹ and the catalytic efficiency (kcat/Km) is 160000 M⁻¹ s⁻¹.

B1: DHQase 3007 (Gluconobacter oxydans 621H) (protein)
chain: MTAPKVLSRGQMKRPLITVLNGPNLNMLGLRQPGIYGHATLDDVEQVCIQAAERLDVAIDFRQTNGEGELVSWVQECRGRADGIVINPAAYGHTSIALLDALLAVELPVIEVHISNIHRREPFRHHTYVSQAAIGVICGLGVRGYAHALQAITDMIEDEG
notes: full length, codon-optimised synthetic gene, pET28a His tag, E. coli BL21(DE3), Ni-NTA
Consider B1, for which, in data set [2], the Km was found to be 777.75 µM, the Vmax is 146 µM/min, the kcat amounted to 77.1 s⁻¹ and the kcat/Km is 100000 M⁻¹ s⁻¹.

B2: DHQase 3012 (Arthrobacter crystallopoietes BAB-32) (protein)
chain: MGNMSEHSTGSSTRKLLVLNGPNLNLLGTREPQIYGSDTLEDAETLAARAAEAHGLAVECLQSNHEGVLIDAIHAARGTAAGIVINPGGYTHTSVALRDALSGVDLPVVEVHISNIHRREEFRHHSYISGIAVAVIAGAGISGYKFAVDLLASRL
notes: as for B1
As to B2, in data set [3], the Km turned out to be 448.50 µM, the Vmax is 4000 µM/min, the kcat was 185 s⁻¹ and the kcat/Km was 410000 M⁻¹ s⁻¹.

B3: DHQase 3026 (Natranaerobius thermophilus JW/NM-WN-LF) (protein)
chain: MKIYVIHGPNINMLGNRESEHYGTQTLEELNSSIIKESESLGIEVEIFQFNSEGDIITKLQEANNYAQGVIINPGAYTHYSIAIRDAIAAISKPVIEVHISNIFNRESFRSHSVIAPVAKGQISGMGFAGYLLALNAFIKTKEG
notes: as for B1
For B3, in data set [4], the Km came to 304.54 µM, the Vmax was 177 µM/min, the kcat was determined as 3.8 s⁻¹ and the kcat/Km was determined as 10000 M⁻¹ s⁻¹.

B4: DHQase 3028 (Thermodesulfobium narugense DSM 14796) (protein)
chain: MKKILVINGPNLNMLGTREPNIYGSITLHGLEELILNFAKELEMKVDFFQSNHEGDIIDKIHRTFDAYDAFIINPGAFTHYSYAIRDAIASITIPVIEVHLSNVHAREEFRKSSVIAPVCLGQISGLGELSYIAAIVALDKYLQKLEKRA
notes: as for B1
In the case of B4, in [5], the Km was 180.72 µM, the Vmax is 69.6 µM/min, the kcat was determined as 6.88 s⁻¹ and the specificity constant (kcat/Km) stood at 40000 M⁻¹ s⁻¹.

B5: DHQase 3024 (Halanaerobium hydrogeniformans) (protein)
chain: MQKVAVIHGPNLNMLGLREPEIYGKNNLEMVNKNLKRKAKELDFEIEIMQSNHEGEIVDYLHQNFEQLDGVIINPGGLTHTSVILRDALAAVRLPVIEVHISNIHKREEFRHKSLTAAVAVGQITGLGVKGYTLALEGLKSILGREKY
notes: as for B1
Consider B5, for which, in [6], the Km was 526.07 µM, the Vmax amounted to 374 µM/min, the catalytic constant (kcat) worked out at 75.1 s⁻¹ and the kcat/Km came out at 140000 M⁻¹ s⁻¹.

B6: DHQase 3016 (Streptomyces acidiscabies) (protein)
chain: MPRTLANAPIMILNGPNLNLLGQRQPEIYGSDTLADVEALCVKAAATHGGTVDFRQSNHEGELVDWIHEARMDHCGIVINPGAYSHTSVAILDALNTCDGLPVIEVHISNIHKREAFRHHSYVSLRADGVIAGCGVQGYVFGVERVAALAGEGTARA
notes: as for B1
Consider B6, for which, in data set [7], the Michaelis constant (Km) is 141.53 µM, the maximal velocity (Vmax) was 745 µM/min, the kcat was found to be 212 s⁻¹ and the specificity constant (kcat/Km) is 1.5e+06 M⁻¹ s⁻¹.

B7: DHQase 3037 (Paramagnetospirillum magneticum AMB-1) (protein)
chain: MLGTRQPELYGTETLADIEAACRTHADSLGLTVEFSQTNMEGELVTSIQKCRGRAVGIIINAGAYTHTSVAILDALLAAEVPAIEVHLSNIHQRDSFRHHSYVAKAAKGMICGLGSHGYILALDALARLIKGNAEA
notes: as for B1
In the case of B7, in [8], the Km worked out at 119.97 µM, the Vmax came to 232 µM/min, the kcat turned out to be 73.2 s⁻¹ and the kcat/Km came out at 610000 M⁻¹ s⁻¹.

B8: DHQase 3014 (Nocardia brasiliensis ATCC 700358) (protein)
chain: MSAPGPILVLNGPNLNMLGTRQPEVYGSATLDDVVELCRQTAERYGREIAAFQSNSEGALIDRIHRARGVESAIVINPGGLTHTSVALRDALVIPEVPIVEVHISNVHAREEFRHHSYISPIATAVVAGMGIQGYAAAIEFLVRSA
notes: as for B1
For B8, in data set [9], the Km came out at 151.51 µM, the maximal velocity (Vmax) came out at 216 µM/min, the kcat came out at 3.83 s⁻¹ and the kcat/Km stood at 30000 M⁻¹ s⁻¹.

B9: DHQase 3003 (Alcanivorax borkumensis SK2) (protein)
chain: MITANNDKFARGPILASILVLHGPNLNLLGTREPDKYGHTTLADINQQLQEQASKAGHHLQHLQSNAEYELVECIHDAHTEGVDFIIINPAAFTHTSVALRDALLAVNIPFIEVHLSNVHARETFRHHSFFSDIAKGVICGLGAIGYALALTAALEQLDD
notes: as for B1
As for B9, in [10], the Km was determined as 210.71 µM, the maximal velocity (Vmax) amounted to 80.4 µM/min, the turnover number (kcat) stood at 13.5 s⁻¹ and the kcat/Km was 60000 M⁻¹ s⁻¹.

B10: DHQase 3025 (Acetivibrio clariflavus DSM 19732) (protein)
chain: MKKILIINGPNLNLLGTREKEVYGTETLDDIAKKVAEEAAKLNVNIEFFQSNHEGDIIDKIHAARGNTDAIIINPGAYTHYSIAIRDAIKAVEIPTIEIHLSNIHAREEFRSHSVIAPVCVGQICGFGSNSYILGLNAAALL
notes: as for B1
As for B10, in data set [11], the Km came to 368.46 µM, the Vmax is 353 µM/min, the kcat amounted to 59.6 s⁻¹ and the kcat/Km came out at 160000 M⁻¹ s⁻¹.

B11: DHQase 3030 (Metallosphaera cuprina Ar-4) (protein)
chain: MFSLMKPEIVVSLPVTRPDDLNKVNKIDGLVELRLDYSTELPNPEELIPFKHKVLVTLRDKEEGGRIKYDVDFKAKYLERLNELGILYDVEASFLERRKIEYVGKIVSAHYFSSLPSTEEIDQLFRKYEGAYTIKVAVASLPGYRELLSYVSGKPNATFMPMSNDPIERLAFSLLGSKLLYTYLESPTAQGQLSYTQAKQILECIFK
notes: as for B1
On to B11, for which, in data set [12], the Km was 92.76 µM, the Vmax came out at 68.4 µM/min, the kcat was determined as 3.86 s⁻¹ and the specificity constant (kcat/Km) turned out to be 40000 M⁻¹ s⁻¹.

B12: DHQase 3021 (Parageobacillus thermoglucosidasius) (protein)
chain: MAHLLLINGPNLNLLGKREPHIYGSTTLDSLEQELISFANEHGAALTCFQSNHEGAIIDRIHEAEGKYDGIILNAGAFTHYSYAIRDAIASISIPVVEVHISNIHAREPFRHQSVIAPVVAGQIVGFGLAGYRLAILALLEIKGRGDK
notes: as for B1
Turning to B12, in [13], the Km came to 133.97 µM, the Vmax is 130 µM/min, the kcat stood at 5.33 s⁻¹ and the kcat/Km was 40000 M⁻¹ s⁻¹.

B13: DHQase 3010 (Psychromonas ingrahamii 37) (protein)
chain: MTQQIKLLVLNGPNLNLLGQREPEVYGSKTLDDIIKALTDEAALQNVALSHLQSNREYELIEKIHDAFEKIDFIIINPAAFTHTSVALRDALLGVNIPFIEVHLSNVHARESFRHHSYLSDIAQGVICGLGAKGYSFALQSAIGKLRNI
notes: as for B1
On to B13, for which, in data set [14], the Km was found to be 202.55 µM, the Vmax worked out at 48 µM/min, the kcat came to 10.6 s⁻¹ and the kcat/Km was 50000 M⁻¹ s⁻¹.

B14: DHQase 3027 (Ruminococcus champanellensis 18P13 = JCM 17042) (protein)
chain: MRILVIHGPNLNLLGEREPGIYGKNDLAHVNGAILTRAKELGVECEVFQSNHEGEILVRLHEARHAFDGVVLNAGAYTHYSYAIRDAIAAIRIPCVEVHISNVHAREEFRHTSVIAPACLGVVCGFGGDSYLLALEGLVRHCAGQKTL
notes: as for B1
For B14, in [15], the Km stood at 255.54 µM, the Vmax is 360 µM/min, the kcat is 50.2 s⁻¹ and the catalytic efficiency (kcat/Km) was determined as 200000 M⁻¹ s⁻¹.
